Test results taken from US20190262327A1 (AstraZeneca / MedImmune, published 2019).
Numbering of substitutions follows the chain as printed.

B1: Abet0371 scFv (scFv, V domains shown, not shown: small tags and cut ends)
VH: EVQLSESGGGLVQPGGSLRLSCAASHDAFPFDTMWWVRQAPGKGLEWVSVIGSSGGTTVYADSVKGRFTVSRDNSKNTLYLQMNSLRAEDTAVYYCAREWMDHSRPYYYYGMDVWGQGTLVTVSS
VL: SYELTQPPSVSVSPGQTASITCSGHNISSSWVSWYQQKPGQSPVLVIYRDDKRPSGIPERFSASNSGHTATLTISGTQATDEADYYCSSQDTVTRVFGGGTKLTVL
notes: Purified scFv expressed in E. coli
B2: Abet0322b scFv (scFv, V domains shown, not shown: small tags and cut ends)
VH: EVQLLESGGGLVQPGGSLRLSCAASNEEFQYNPMWWVRQAPGKGLEWVSVIGSSGGATVYADAVKGRFTISRDNSENTLYLQMNSLRAEDTAVYYCAREWMDHSRPYYYYGMDVWGQGTLVTVSS
VL: B1 VL with I27L, S28G, S29D, S30K, W31F, V32A, G56E
notes: as for B1
B3: Abet0321b scFv (scFv, V domains shown, not shown: small tags and cut ends)
VH: B1 VH with S5L, H26A, D27Y, A28H, F29S, P30N, F31H, T33P, V59A, V70I
VL: B1 VL with I27L, S28E, S29D, S30K, W31F, V32A, V46I
notes: as for B1
B4: Abet0374 scFv (scFv, V domains shown, not shown: small tags and cut ends)
VH: EVQLLESGGGLVQPGGSLRLSCAASGFQFKDTPMWWVRQAPGKGLEWVSVIGDQNHKKAYADSVKGRFTISRDNSKNTLYLQMNSLRAEDTAVYYCAREWMDHSRPYYYYGMDAWGQGTLVTVSS
VL: B1 VL with S13T, I27L, S28G, S29G, S30K, W31F, V32A, S66F
notes: as for B1
B5: Abet0319 scFv (scFv, V domains shown, not shown: small tags and cut ends)
VH: B1 VH with S5L, H26V, D27S, A28V, F29Y, P30N, F31K, V70I
VL: B1 VL with S28M, S29D, S30K, Q41R, V44A
notes: as for B1
B6: Abet0372 scFv (scFv, V domains shown, not shown: small tags and cut ends)
VH: EVQLLESGGGLVQPGGSLRLSCAASSDMFNIETMWWVRQAPGKGLEWVSVIGKGMNNVSYADSVKGRFTISRDNSKNTLYLQMNSLRAEDTAVYYCAREWMDHSRPYYYYGMDVWGQGTLVTVSS
VL: B1 VL with I27L, S28E, S29D, S30K, W31F, V32A
notes: as for B1
B7: Abet0343 scFv (scFv, V domains shown, not shown: small tags and cut ends)
VH: EVQLLESGGGLVQPGGSLRLSCAASGFNFNHQVMWWVRQAPGKGLEWVSVIGKTNENIAYADSVKGRFTISRDNSKNTLYLQMNSLRAEDTAVYYCAREWMDHSRPYYYYGMDVWGQGTLVTVSS
VL: B1 VL with S1Q, Y2S, E3V, I27L, S28E, S29D, S30K, W31F, V32A, P39S
notes: as for B1
B8: Abet0370 scFv (scFv, V domains shown, not shown: small tags and cut ends)
VH: B7 VH with N28H, N30P, H31M, Q32S, V33A, K53E, N55P, N57R, I58Q, N77S
VL: SYELTQPPSVSVSPGQTASITCTTPHFNSKFASWYQQKPGQSPVLVIYRDDKRPSGIPERFSASNSGHTATLTISGTQAMDEADYYCQAQDSTTRVFGGGTRLTVL
notes: as for B1
B9: Abet0383 scFv (scFv, V domains shown, not shown: small tags and cut ends)
VH: EVQLLESGGGLVQPGGSLKLSCAASGFTFDWYPMWWVRQAPGKRLEWISVIGADNAKIAYADSVKGRFTISRDNSKNTLYLQMNSLRAEDTAVYYCAREWMGHSRPYYYYGMDVWGQGTPVTVSS
VL: B1 VL with I27L, S28G, S29D, S30K, W31F, V32A
notes: as for B1
B10: Abet0378 scFv (scFv, V domains shown, not shown: small tags and cut ends)
VH: B7 VH with N28P, N30E, H31T, Q32D, V33I, K53T, T54N, N55T, E56D, I58V
VL: B1 VL with I27L, S28E, S29D, S30K, W31F, V32A
B11: Abet0344 scFv (scFv, V domains shown, not shown: small tags and cut ends)
VH: EVQLLESGGGLVQPGGSLSLSCAASGFTFSVYTMWWVRQAPGKGLEWVSVIGGNETRKAYADSVKGRFTISRDNSKNRLYLQMNSLRAEDTAVYYCAREWMDHSRPYYYYGMDVWGQGTLVTVSS
VL: QSVLTQPPSVSVSPGQTASITCSGHNLEDKFASWYQQKSGQSPVLVIYRDDKRPSGIPERFSASNSGHTATLTISGTQATDEADYYCATQDNFTRVFGGGTKLTVL
notes: as for B1
B12: Abet0379 scFv (scFv, V domains shown, not shown: small tags and cut ends)
VH: EVQLLESGGGLVQPGGSLRLSCAASGFDFAETPLWWVRQAPGERLEWVSVIGSNQNKTAYADSVKGRFTISRDNSKDTLYLQMNSLRAEDTAVYYCAREWMDHSRPYYYYGMDVWGQGTLVTVSS
VL: B11 VL with E82G
notes: as for B1
B13: Abet0342 scFv (scFv, V domains shown, not shown: small tags and cut ends)
VH: B7 VH with N28D, N30R, H31R, Q32S, K53A, T54Q, N55T, E56Q, I58K
VL: B8 VL with T23S, T24G, P25H, H26N, F27L, N28E, S29D, H68D, R102K
notes: as for B1
B14: Abet0373 scFv (scFv, V domains shown, not shown: small tags and cut ends)
VH: EVQLLESGGGLVQPGGSLRLSCVASGFDFERSVMWWVRQAPGKRLEWVSVIGSGKTNITYADSVKGRFTISRDNSKNTLYLQMNSLRAEDTAVYYCAREWMDHSRPYYYYGMDVWGQGTLVTVSS
VL: B1 VL with I27L, S28E, S29D, S30K, W31F, V32A, G56E
notes: as for B1
B15: Abet0368 scFv (scFv, V domains shown, not shown: small tags and cut ends)
VH: EVQLLESGGGLVQPGGSLRLSCAASGFDFGPSPMWWVRQAPGKGLEWVSVIGKDTQNSTYADSVKGRFTISRDNSKDTLYLQMNSLKAEDTAVYYCAREWMDHSRPYYYYGMDVWGQGTLVTVSS
VL: B1 VL with I27L, S28E, S29D, S30K, W31F, V32T, P39S, T77A
notes: as for B1
B16: Abet0381 scFv (scFv, V domains shown, not shown: small tags and cut ends)
VH: EVQLLESGGGLVQPGGSLRLSCAASSPSFPRETMWWVRQAPGKGLEWVSVIGTQPNRLTYADSVKGRFTISRDNSKNTLYLQMNSLRAEDTAVYYCAREWMDHSRPYYYYGIDVWGQGTLVTVSP
VL: B1 VL with V12A, I27L, S28E, S29D, S30K, W31F, D84N, V96A
notes: as for B1
B17: Abet0329 scFv (scFv, V domains shown, not shown: small tags and cut ends)
VH: EVQLLESGGGLVQPGGSLRLSCAASTFNLKRETMWWVRQAPGKGLEWVSVIGSHQERTSYADSVKGRFTISRDNSKNTLYLQMNSLRAEDTAVYYCAREWMDHSRPYYYYGMDVWGQGTLVTVSS
VL: B1 VL with I27V, S29D, S30K, V32M, S33T
notes: as for B1
B18: Abet0328 scFv (scFv, V domains shown, not shown: small tags and cut ends)
VH: EVQLLESGGGLVQPGGSLRLSCAASRDPFKADTMWWVRQAPRKRLEWVSVIGAHTTNSAYADSVKGRFTISRDNSKNTLYLQMNSLRAEDTAVYYCAREWMDRSRPYYYYGMDVWGQGTLVTVSS
VL: B1 VL with A18V, H25R, I27L, S28E, S29D, S30K, W31F, V32A, I57V
notes: as for B1
B19: Abet0332 scFv (scFv, V domains shown, not shown: small tags and cut ends)
VH: EVQLLESGGGLVQPGESLRLSCAASSDSWHTDIMWWVRQAPGKRLEWVSVIGNSNKKIAYADSVKGRFTISRDNSKNTLYLQMNSLRAEDTAVYYCAREWMDHSRPYYYYGMDVWGQGTLVTVSS
VL: B1 VL with S28G, S29A, S30K, V44I, S88Q, S89A, D91G, T92Q, V96S
notes: as for B1

These binders were tested against T1, biotinylated synthetic human Amyloid beta 1-42 peptide (human, UniProt P05067 672-713, biotinylated (N-terminal biotin in Example 4)) (assay: HTRF epitope competition; purified scFv titrated; competitor Abet0144-GL IgG1-TM; range of repeats).
T1 construct: domain: Amyloid beta 1-42 peptide; Numbers 1-42 count on the Amyloid beta peptide, not on APP; also called biotinylated human Amyloid beta 1-42; N-terminal biotin Abeta 1-42
T1 sequence (P05067 672-713 limits assumed): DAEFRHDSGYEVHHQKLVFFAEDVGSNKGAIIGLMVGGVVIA
Protocol: (§1) Two thousand and twenty four scFv chosen at random from selection rounds 3 and 4 of the targeted mutagenesis approach described in section 1.2 were expressed in bacteria to produce unpurified periplasmic scFv.
(§2) One thousand six hundred and seventy two scFv, randomly selected from selection rounds 9 to 11, were screened in an epitope competition assay as described in section 1.3.
(§3) Where the assay was performed more than once, the absolute range of IC₅₀ values is provided.

| Binder | IC50 [pM] |
| --- | --- |
| B1 | 460 to 530 |
| B2 | 430 to 980 |
| B3 | 690 to 760 |
| B4 | 410 to 430 |
| B5 | 520 to 760 |
| B6 | 260 to 490 |

Each binder was assayed against T1, biotinylated synthetic human Amyloid … (assay: SPR (ProteOn); biotinylated peptide on streptavidin chip, scFv in solution).
Protocol: These experiments were performed essentially as described by Karlsson et al. (Karlsson et al., 1991).
The chip surface was regenerated between cycles by a single 60 second injection of 10 mM Glycine pH 2.0 to remove scFv bound to the peptide.
Each scFv at 100-200 nM was sequentially passed over the peptide surface for a sufficient amount of time to observe sensorgrams that could be fitted to an appropriate binding model with confidence. An irrelevant scFv blank was subtracted from the main dataset to reduce the impact of any buffer artefacts or non-specific binding effects. An appropriate binding model was then fitted to the data.

| Binder | Kd [pM] | koff [s⁻¹] | kon [M⁻¹ s⁻¹] |
| --- | --- | --- | --- |
| B7 | 188 | 2.25e-05 | 120000 |
| B8 | 651 | 7.76e-05 | 119000 |
| B9 | 217 | 3.94e-05 | 181000 |
| B10 | 472 | 6.41e-05 | 136000 |
| B1 | 762 | 0.000272 | 357000 |
| B2 | 812 | 0.000165 | 203000 |
| B3 | 222 | 3.33e-05 | 150000 |
| B11 | 739 | 5.73e-05 | 77500 |
| B12 | 327 | 4.39e-05 | 134000 |
| B13 | 421 | 5.73e-05 | 136000 |
| B4 | 236 | 6.04e-05 | 256000 |
| B14 | 483 | 8.92e-05 | 185000 |
| B5 | 391 | 0.000129 | 329000 |
| B15 | 482 | 9e-05 | 187000 |
| B16 | 241 | 5.14e-05 | 213000 |
| B17 | 701 | 0.000138 | 197000 |
| B18 | 729 | 0.000103 | 141000 |
| B6 | 724 | 0.000176 | 243000 |
| B19 | 391 | 0.000129 | 329000 |

The binders below were run against T1, biotinylated synthetic human Amyloid … (assay: HTRF epitope competition; purified scFv titrated; competitor Abet0144-GL IgG1-TM).
Protocol: as §1, §2, §3

| Binder | IC50 [pM] |
| --- | --- |
| B7 | 480 |
| B8 | 760 |
| B9 | 750 |
| B10 | 970 |
| B1 | 500 |
| B2 | 710 |
| B3 | 730 |
| B11 | 770 |
| B12 | 690 |
| B13 | 590 |
| B4 | 420 |
| B14 | 840 |
| B5 | 680 |
| B15 | 550 |
| B16 | 470 |
| B17 | 630 |
| B18 | 550 |
| B6 | 380 |
| B19 | 910 |
